For 1 compound, tissue uptake results are on record in patent publication EP0607103A2, “Somatostatin analogs containing chelating groups and their radiolabeled compositions” (SANDOZ LTD., priority 1993, dated 1994).

The structures appear in SMILES notation.

Details of this data set: species or system rats. The settings on record: rat, in vivo. The method, then: The affinity of the CHELATES OF THE INVENTION for somatostatin receptors can also be shown by in vivo testing, according to standard test methods, e.g. as disclosed in GB-A-2, 225,579. For example the compound of Example 2 gives a tumor accumulation of 1.9 ± 0.4 % injected dose per g (n = 6) 4 hours after injection into rats bearing an exocrine pancreatic tumor.

`C[C@@H](O)[C@@H]1NC(=O)[C@H](CCCCN)NC(=O)[C@@H](Cc2c[nH]c3ccccc23)NC(=O)[C@H](Cc2ccccc2)NC(=O)[C@@H](NC(=O)[C@@H](Cc2ccccc2)NC(=S)Nc2ccc(CC(CNCCN)CNCCN)cc2)CSSC[C@@H](C(=O)N[C@H](CO)[C@@H](C)O)NC1=O` [Example 2, ^99mTc labelled compound of Example 1, metal not drawn]: the tissue uptake at 4 h is 1.9 ± 0.4 %ID/g.

Broadly, the tissue uptake is the percentage of the injected dose found per gram of tissue. A high value points to high uptake.
